Positions count from the first letter of the chain named. Names and notes keep the numbering of the source.
T1: LRRC15 (leucine-rich repeat-containing protein 15) (human, UniProt Q8TF66 22-538, limits assumed)
T1 construct: The KD sentences say only 'LRRC15'; also called human LRRC15
T1 sequence (looked up): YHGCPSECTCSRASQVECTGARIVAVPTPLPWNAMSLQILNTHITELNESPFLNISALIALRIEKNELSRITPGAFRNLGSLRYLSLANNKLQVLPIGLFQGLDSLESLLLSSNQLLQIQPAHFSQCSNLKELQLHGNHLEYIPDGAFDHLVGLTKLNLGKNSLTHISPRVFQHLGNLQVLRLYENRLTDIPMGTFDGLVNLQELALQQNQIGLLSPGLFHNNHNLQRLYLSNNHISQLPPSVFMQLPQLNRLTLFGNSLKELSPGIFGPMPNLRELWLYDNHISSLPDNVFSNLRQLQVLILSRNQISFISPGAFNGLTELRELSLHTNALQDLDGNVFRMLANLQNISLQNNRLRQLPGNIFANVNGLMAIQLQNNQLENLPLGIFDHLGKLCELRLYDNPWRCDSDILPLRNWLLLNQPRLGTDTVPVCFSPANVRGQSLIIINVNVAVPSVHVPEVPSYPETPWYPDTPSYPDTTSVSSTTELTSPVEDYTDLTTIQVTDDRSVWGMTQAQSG

B1: mAb J66 (mouse) (antibody, V domains shown)
VH: QVQMKESGTELVRPGTSVKMSCKAAGYTFTNYWIGWVKQRPGHGPEWIGDIYPRSGYTNYNEKFKGKATLTADTSSSTAYMQLSSLTSEDSTIYFCARSGGMYYFDYWGQGTTLTVSS
VL: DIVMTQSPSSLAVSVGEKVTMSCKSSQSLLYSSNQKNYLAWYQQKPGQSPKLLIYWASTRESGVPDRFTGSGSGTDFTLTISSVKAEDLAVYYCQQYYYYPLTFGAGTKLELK
notes: From hybridomas of immunized mice; also called parent mouse antibody; Bin A2
B2: hzJ66 VHv1 / hzJ66 VLv1 (antibody, V domains shown)
VH: QVQLVQSGAEVKKPGASVKVSCKASGYTFTNYWIGWVRQAPGQGLEWMGDIYPRSGYTNYNEKFKGRVTMTRDTSTSTVYMELSSLRSEDTAVYYCARSGGMYYFDYWGQGTTVTVSS
VL: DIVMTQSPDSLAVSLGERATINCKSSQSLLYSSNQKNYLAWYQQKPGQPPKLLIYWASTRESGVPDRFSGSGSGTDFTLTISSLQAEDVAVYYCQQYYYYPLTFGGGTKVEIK
notes: The KD sentence says only 'the parent humanized ... antibody'; also called parent humanized antibody (J66)
B3: hzJ48 VHv3 / hzJ48 VLv1.1 (N92S) (antibody, V domains shown)
VH: QVQLVQSGAEVKKPGASVKVSCKASGYTFTDYYINWVRQAPGQGLEWMGWIYPGSGNTKYAQKFQGRVTMTRDTSTSTVYMELSSLRSEDTAVYYCARWGYGAYFTYWGQGTLVTVSS
VL: DIQMTQSPSSLSASVGDRVTITCKASQNVGINVAWYQQKPGKAPKLLIYSASYRSSGVPSRFSGSGSGTDFTLTISSLQPEDFATYYCQQYSSFPYTFGGGTKVEIK
notes: Human IgG1 or IgG1null and human kappa constant regions
B4: hzJ48 VHv3 / hzJ48 VLv1.3 (S93A) (antibody, V domains shown)
VH: B3 VH
VL: B3 VL with S92N, S93A
notes: as for B3
B5: hzJ48 VHv3 / hzJ48 VLv1.2 (N92Q) (antibody, V domains shown)
VH: B3 VH
VL: B3 VL with S92Q
notes: as for B3
B6: hzK713 VHv1 / hzK713 VLv1 (antibody, V domains shown)
VH: QVQLVQSGAEVKKPGASVKVSCKASGYTFTDYYMNWVRQAPGQRLEWMGRVSPSNGGTNYNQKFRGRVTITRDTSASTAYMELSSLRSEDTAVYYCARRGAGYSYYAMDYWGQGTTVTVSS
VL: DIVMTQSPDSLAVSLGERATINCRASESVDSYGNSLMYWYQQKPGQPPKLLIYLASNLESGVPDRFSGSGSGTDFTLTISSLQAEDVAVYYCQQNNEDPLTFGGGTKVEIK
notes: Expressed in CHO cells; also called parent antibody comprising hzK713 VLv1 in combination with heavy chain hzK713 VHv1
B7: hzK713 VHv4 (G56A) / hzK713 VLv1 (antibody, V domains shown)
VH: B6 VH with G56A
VL: B6 VL
notes: The KD sentence prints 'hzJ48 VHv2-v4', read as hzK713 VHv2-v4; also called printed in the KD sentence as hzJ48 VHv4 with hzK713 VLv1
B8: hzK713 VHv2 (N55Q) / hzK713 VLv1 (antibody, V domains shown)
VH: B6 VH with N55Q
VL: B6 VL
notes: The KD sentence prints 'hzJ48 VHv2-v4', read as hzK713 VHv2-v4; also called printed in the KD sentence as hzJ48 VHv2 with hzK713 VLv1
B9: hzK713 VHv3 (N55S) / hzK713 VLv1 (antibody, V domains shown)
VH: B6 VH with N55S
VL: B6 VL
notes: The KD sentence prints 'hzJ48 VHv2-v4', read as hzK713 VHv2-v4; also called printed in the KD sentence as hzJ48 VHv3 with hzK713 VLv1
B10: hzF36 VHv6.2 (D54Q) / hzF36 VLv1 (antibody, V domains shown)
VH: QVQLVQSGAEVKKPGASVKVSCKASGYTFTSFVIHWVRQAPGQGLEWMGYIYNQGTKYNERFRGRATLTSDKSTSTVYMELSSLRSEDTAVYYCARDYYFDYWGQGTLVTVSS
VL: DIVMTQSPDSLAVSLGERATINCRASESVDYYGISFMNWYQQKPGQPPKLLIYAASNQGSGVPDRFSGSGSGTDFTLTISSLQAEDVAVYYCQQSKEVPYTFGGGTKVEIK
B11: hzF36 VHv6 / hzF36 VLv1.1 (M4L) (antibody, V domains shown)
VH: B10 VH with Q54D
VL: B10 VL with M4L
notes: also called parent heavy chain hzF36 VHv6 in combination with light chain hzF36 VLv1.1
B12: hzF36 VHv6.4 (G55A) / hzF36 VLv1 (antibody, V domains shown)
VH: B10 VH with Q54D, G55A
VL: B10 VL
B13: hzJ66 VHv2 (M102L) / hzJ66 VLv1 (antibody, V domains shown)
VH: B2 VH with M102L
VL: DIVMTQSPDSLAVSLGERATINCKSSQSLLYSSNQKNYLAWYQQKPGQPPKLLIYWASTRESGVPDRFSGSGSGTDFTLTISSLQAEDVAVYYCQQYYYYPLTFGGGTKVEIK
notes: also called printed as heavy chain variant hzJ66 VLv2 with light chain hzJ66 VHv1
B14: hzJ66 VHv2 (M102L) / hzJ66 VLv1.1 (N22S) (antibody, V domains shown)
VH: B2 VH with M102L
VL: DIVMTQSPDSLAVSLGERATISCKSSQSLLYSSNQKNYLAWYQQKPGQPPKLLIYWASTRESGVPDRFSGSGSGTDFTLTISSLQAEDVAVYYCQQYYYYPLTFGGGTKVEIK
notes: also called printed as heavy chain variant hzJ66 VLv2 with light chain hzJ66 v1.1

Biological target: T1, LRRC15 (leucine-rich repeat-containing …)
Assay: binding analysis (koff and/or KD); method not named

Kd | Binder
< 0.001 nM | B1
< 0.001 nM | B2

Biological target: T1, LRRC15 (leucine-rich repeat-containing …)
Assay: binding analysis (koff and/or KD) of mAb expressed in CHO cells; method not named

Kd | Binder
1.7 nM | B3
0.6 nM | B4
1.6 nM | B5
0.208 nM | B6
0.334 nM | B7
0.307 nM | B8
0.212 nM | B9
0.34 nM | B10
0.33 nM | B11
0.32 nM | B12
< 0.001 nM | B13
< 0.001 nM | B14

— patent WO2021102332A1 (dated 2021)
